Laboratory results from article PMC3569036 (FEBS letters, 2012).

Biological target: calmodulin (vertebrate CaM amino acid sequence, encoded by a rat cDNA) (rat, UniProt P0DP29 1-149)
Assay: cryo-EM structure

- binding result: binds
B1: bovine endothelial nitric oxide synthase (eNOS) with the phosphomimetic S1179D substitution (enzyme)
chain: MGNLKSVGQEPGPPCGLGLGLGLGLCGKQGPASPAPEPSRAPAPATPHAPDHSPAPNSPTLTRPPEGPKFPRVKNWELGSITYDTLCAQSQQDGPCTPRCCLGSLVLPRKLQTRPSPGPPPAEQLLSQARDFINQYYSSIKRSGSQAHEERLQEVEAEVASTGTYHLRESELVFGAKQAWRNAPRCVGRIQWGKLQVFDARDCSSAQEMFTYICNHIKYATNRGNLRSAITVFPQRAPGRGDFRIWNSQLVRYAGYRQQDGSVRGDPANVEITELCIQHGWTPGNGRFDVLPLLLQAPDEAPELFVLPPELVLEVPLEHPTLEWFAALGLRWYALPAVSNMLLEIGGLEFSAAPFSGWYMSTEIGTRNLCDPHRYNILEDVAVCMDLDTRTTSSLWKDKAAVEINLAVLHSFQLAKVTIVDHHAATVSFMKHLDNEQKARGGCPADWAWIVPPISGSLTPVFHQEMVNYILSPAFRYQPDPWKGSATKGAGITRKKTFKEVANAVKISASLMGTLMAKRVKATILYASETGRAQSYAQQLGRLFRKAFDPRVLCMDEYDVVSLEHEALVLVVTSTFGNGDPPENGESFAAALMEMSGPYNSSPRPEQHKSYKIRFNSVSCSDPLVSSWRRKRKESSNTDSAGALGTLRFCVFGLGSRAYPHFCAFARAVDTRLEELGGERLLQLGQGDELCGQEEAFRGWAKAAFQASCETFCVGEEAKAAAQDIFSPKRSWKRQRYRLSTQAEGLQLLPGLIHVHRRKMFQATVLSVENLQSSKSTRATILVRLDTAGQEGLQYQPGDHIGICPPNRPGLVEALLSRVEDPPPPTESVAVEQLEKGSPGGPPPSWVRDPRLPPCTLRQALTFFLDITSPPSPRLLRLLSTLAEEPSEQQELETLSQDPRRYEEWKWFRCPTLLEVLEQFPSVALPAPLLLTQLPLLQPRYYSVSSAPNAHPGEVHLTVAVLAYRTQDGLGPLHYGVCSTWLSQLKTGDPVPCFIRGAPSFRLPPDPYVPCILVGPGTGIAPFRGFWQERLHDIESKGLQPAPMTLVFGCRCSQLDHLYRDEVQDAQERGVFGRVLTAFSREPDSPKTYVQDILRTELAAEVHRVLCLERGHMFVCGDVTMATSVLQTVQRILATEGDMELDEAGDVIGVLRDQQRYHEDIFGLTLRTQEVTSRIRTQDFSLQERHLRGAVPWAFDPPGPDTPGP
